From article PMC5327383, “Pneumococcal galactose catabolism is controlled by multiple regulators acting on pyruvate formate lyase” (Scientific Reports, 2017)
Where “and” joins values, the source holds several entries; their conditions need not be identical. Identical values can stand only once.

What was measured:
Experiment in all cases: EMSA
[1] = target: T1, GlnR (Streptococcus pneumoniae D39) (UniProt A0A0H2ZRB1); conditions: 5X FY buffer: 20 mM Tris-HCl pH 7.5, 30 mM KCl, 1 mM DTT, 1 mM EDTA, 10% glycerol; room temperature 20 min, 20 ul, ~30 ng DNA, 0.1-0.5 uM protein; 8%
T1 sequence: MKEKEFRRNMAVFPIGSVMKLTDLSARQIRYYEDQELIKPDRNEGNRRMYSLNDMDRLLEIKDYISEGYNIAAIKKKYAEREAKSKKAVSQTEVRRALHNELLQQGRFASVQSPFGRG

[2] = target: CcpA (Streptococcus pneumoniae D39) (UniProt A0A0H2ZQ65); conditions: 5X FY buffer: 20 mM Tris-HCl pH 7.5, 30 mM KCl, 1 mM DTT, 1 mM EDTA, 10% glycerol; room temperature 20 min, 20 ul, ~30 ng DNA, 0.1-0.5 uM protein; 8%
[3] = target: T2, GntR (Streptococcus pneumoniae D39) (UniProt A0A0H2ZQS8); conditions: 5X FY buffer: 20 mM Tris-HCl pH 7.5, 30 mM KCl, 1 mM DTT, 1 mM EDTA, 10% glycerol; room temperature 20 min, 20 ul, ~30 ng DNA, 0.1-0.5 uM protein; 8%
T2 sequence: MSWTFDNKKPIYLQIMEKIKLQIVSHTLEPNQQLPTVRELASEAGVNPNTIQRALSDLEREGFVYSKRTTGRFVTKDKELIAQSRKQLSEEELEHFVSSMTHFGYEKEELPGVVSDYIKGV

[4] = system: GlnR (Streptococcus pneumoniae D39); conditions: 5X FY buffer: 20 mM Tris-HCl pH 7.5, 30 mM KCl, 1 mM DTT, 1 mM EDTA, 10% glycerol, room temperature 20 min, 20 ul, ~30 ng DNA, 0.1-0.5 uM protein, 8%
[5] = system: CcpA (Streptococcus pneumoniae D39); conditions: 5X FY buffer: 20 mM Tris-HCl pH 7.5, 30 mM KCl, 1 mM DTT, 1 mM EDTA, 10% glycerol, room temperature 20 min, 20 ul, ~30 ng DNA, 0.1-0.5 uM protein, 8%

Substance | binding [1] | binding [2] | binding [3] | further results
AAGTGCAAAATCCCTATTTTTACACTTTCTTTTCTAAAACAGTCTATATTTTATTTCAAACTGTATTATATTTTTGAAAAAAATAAAGTCCTTTT (double strand) [PpflB(cre1-)] | no binding | no binding |  | 
ATGACAGAAGAAATCAAAAATCTGCAGGCACAGGATTATGATGCCAGTCAAATTCAAGTTTTAGAGGGCTTAGAGGCTGTTCGTATGCGTCCAGG (double strand) [gyrB] | no binding | no binding |  | 
GTGAAAATTTCGTTTTCATATTTCTACTTATTCCATTCTATCACTAATTGTAAACACTTTCAAGTGTTTTTTGAAGATTGATTGAAAAAATTTCA (double strand) [PccpA] | binds | binds | no binding | 
CAGTTTGAAATAAAATATAGACTGTTTTAGAAAAGAAAGTGTAAAAATAGGGATTTTGCACTTGTTGAAATCGGTTACTTTATGGTATACTTGTC (double strand) [PpflB] |  |  | binds | Kd [1]: 310 nM; Kd [2]: 1270 nM and 350 nM
TAATCTGATGATAGATTGAAAATGAAATTGAAAAACAGATTGCTTTCTAAAAAATAGGCAAAAATCTTGTTTTTCCTTCAAGTCGTGATATAATAA (double strand) [PpflA(cre1-)] | binds more weakly | binds more weakly |  | 
PpflB |  |  |  | Kd ([4]; 10 mM sodium formate): 790 nM; Kd ([4]; no formate): 310 nM; Kd ([5]; 10 mM sodium formate): 350 nM; Kd ([5]; no formate): 1270 nM
GTTACCTTCCTTGAAAACGTTTTATAGTTTTATTATATCACGACTTGAAGGAAAAACAAGATTTTTGCCTATTTTTTAGAAAGCAATCTGTTTTTC (double strand) [PpflA] | binds | binds | no binding | 
